Consider three sequences from patent publication US20210130799.

What all share (assay): cleavage_in_vitro
The target of data set [1] is T1, TtCsm6 (Thermus thermophilus) (UniProt Q53W17).
T1 sequence: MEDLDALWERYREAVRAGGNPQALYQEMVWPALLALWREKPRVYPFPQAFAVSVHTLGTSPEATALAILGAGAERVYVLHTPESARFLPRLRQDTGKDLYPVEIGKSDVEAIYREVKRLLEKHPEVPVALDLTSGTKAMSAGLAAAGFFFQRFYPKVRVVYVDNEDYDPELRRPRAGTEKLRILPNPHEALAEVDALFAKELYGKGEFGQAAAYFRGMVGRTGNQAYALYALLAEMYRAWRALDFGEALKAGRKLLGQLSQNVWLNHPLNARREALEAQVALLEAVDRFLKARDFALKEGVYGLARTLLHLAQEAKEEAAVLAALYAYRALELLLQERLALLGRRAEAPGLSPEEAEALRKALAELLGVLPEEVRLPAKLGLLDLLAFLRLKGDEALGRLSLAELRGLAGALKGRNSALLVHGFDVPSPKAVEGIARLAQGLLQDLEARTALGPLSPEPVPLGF
Conditions: cyclic, 3'-5' linked; c(AMP)4 amount required to activate RNase.

The test system of data set [2] is StCsm6' (Streptococcus thermophilus DGCC8004).
Data set [3] deals with StCsm6 (Streptococcus thermophilus DGCC8004).
Setting [4] is: cyclic, 3'-5' linked, c(AMP)6 amount sufficient to activate RNase on RNA NS.

In data set [1], AAAA [c(AMP)4] yielded an activity of 50 nM.
For AAAAAA [c(AMP)6], the activity in data set [2] (setting [4]) is 5 nM; in data set [3] (setting [4]), 0.5 nM.
For the sequence “GGGCGGCAAAUUGAGGAUUUCGUAACUGUUUAAUUCUGUUCACUUAUUCCACCAACAAAAGGUGGCGA [RNA NS]”, the activity in data set [2] (StCsm6' concentration for degradation with cyclic oligoadenylates, 1 uM needed without, 1 mM EDTA, 37 C) came to 1 nM; in data set [3] (lowest StCsm6 concentration for degradation with 0.5 uM cyclic oligoadenylate mix, 1 uM needed without, 1 mM EDTA, 37 C), 1 nM.
